Measured values reported in article PMC5982823, “The Pseudokinase Domain of Saccharomyces cerevisiae Tra1 Is Required for Nuclear Localization and Incorporation into the SAGA and NuA4 Complexes” (G3: Genes|Genomes|Genetics, 2018).

T1: TAP-tagged Ada2 (S. cerevisiae, UniProt Q02336 1-434)
T1 construct: Ada2, SAGA component, S. cerevisiae; TAP-tagged ADA2; Held on IgG beads, released with TEV protease, then held on calmodulin beads, so part of the TAP tag is cut off during the purification; also called TAP-Ada2; TAP-ADA2; source: S. cerevisiae strain with TAP-tagged ADA2 (bought: Open Biosystems YSC1178-202230655; crossed with CY6582 for the tra1 Q3 strain CY7042), in lysate of cells ground in …
T1 sequence (looked up): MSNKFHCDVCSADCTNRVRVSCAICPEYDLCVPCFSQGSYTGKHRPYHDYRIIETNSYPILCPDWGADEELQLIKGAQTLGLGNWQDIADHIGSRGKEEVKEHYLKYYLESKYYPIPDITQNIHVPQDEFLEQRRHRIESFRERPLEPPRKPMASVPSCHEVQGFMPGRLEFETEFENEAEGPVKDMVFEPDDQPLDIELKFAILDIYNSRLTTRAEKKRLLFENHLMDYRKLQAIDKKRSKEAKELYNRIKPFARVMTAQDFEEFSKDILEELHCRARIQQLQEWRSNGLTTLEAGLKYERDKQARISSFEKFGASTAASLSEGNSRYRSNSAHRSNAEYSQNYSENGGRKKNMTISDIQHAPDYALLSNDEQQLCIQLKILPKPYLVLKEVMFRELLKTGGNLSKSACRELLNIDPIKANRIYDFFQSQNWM


Key:
Assay in all cases: affinity purification with mass spectrometry; tandem affinity purification of TAP-tagged Epl1 or Ada2 from lysates of TRA1 or tra1 Q3 strains (260 mg or 170 mg protein): IgG beads 2 h at 4°, IPP150 (10 mM Tris-HCl pH 8.0, 150 mM NaCl), TEV cleavage, calmodulin beads, EGTA elution; SDS-PAGE, Coomassie Brilliant Blue; bands identified by MALDI mass spectrometry or predicted from mass; band intensity by ImageJ
[1] = target: TAP-tagged Ada2 (S. cerevisiae) (UniProt Q02336)
[2] = target: TAP-tagged Epl1 (S. cerevisiae) (UniProt P43572)
TAP-tagged Ada2 = target: T1, TAP-tagged Ada2; settings: partners not purified

TAP-tagged Epl1 (S. cerevisiae), sequence (P43572 whole entry): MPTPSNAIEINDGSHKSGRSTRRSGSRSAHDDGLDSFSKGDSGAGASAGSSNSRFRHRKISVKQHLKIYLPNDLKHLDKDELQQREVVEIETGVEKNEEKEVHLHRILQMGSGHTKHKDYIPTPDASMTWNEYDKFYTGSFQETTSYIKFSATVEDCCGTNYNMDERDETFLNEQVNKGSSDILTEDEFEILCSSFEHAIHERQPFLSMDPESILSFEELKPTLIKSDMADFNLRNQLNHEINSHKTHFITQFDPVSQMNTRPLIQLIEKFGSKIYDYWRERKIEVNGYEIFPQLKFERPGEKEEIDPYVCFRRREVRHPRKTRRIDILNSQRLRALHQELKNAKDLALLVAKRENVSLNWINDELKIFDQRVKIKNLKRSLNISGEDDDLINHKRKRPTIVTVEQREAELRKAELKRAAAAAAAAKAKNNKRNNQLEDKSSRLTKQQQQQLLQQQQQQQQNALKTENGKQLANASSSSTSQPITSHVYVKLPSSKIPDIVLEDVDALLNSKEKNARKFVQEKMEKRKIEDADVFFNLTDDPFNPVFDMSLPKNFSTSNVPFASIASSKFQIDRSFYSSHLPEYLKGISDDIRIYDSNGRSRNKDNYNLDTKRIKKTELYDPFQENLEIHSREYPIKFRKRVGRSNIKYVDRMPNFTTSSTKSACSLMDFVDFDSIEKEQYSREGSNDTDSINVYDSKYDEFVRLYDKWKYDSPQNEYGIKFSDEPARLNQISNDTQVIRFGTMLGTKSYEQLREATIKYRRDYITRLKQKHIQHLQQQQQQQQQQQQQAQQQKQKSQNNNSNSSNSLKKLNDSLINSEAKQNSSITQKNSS

Row | fold decrease against wild-type Tra1 [1] | fold decrease against wild-type Tra1 [2] | fold decrease of full length Spt20 in the TAP-Ada2 pull down, tra1 Q3 strain against the wild-type strain (TAP-tagged Ada2) | Molecule
1 | 6.5 fold | 6.7 fold | – | Tra1 Q3 (R3389Q, R3390Q, R3456Q), P38811 1-3744
2 | – | – | 2.1 fold | full length Spt20 (natural protein, UniProt P50875 1-604, looked up, Spt20, S. cerevisiae, full length band in the TAP-Ada2 purification; source: endogenous, S. cerevisiae lysate) MSANSPTGNDPHVFGIPVNATPSNMGSPGSPVNVPPPMNPAVANVNHPVMRTNSNSNANEGTRTLTREQIQQLQQRQRLLLQQRLLEQQRKQQALQNYEAQFYQMLMTLNKRPKRLYNFVEDADSILKKYEQYLHSFEFHIYENNYKICAPANSRLQQQQKQPELTSDGLILTKNNETLKEFLEYVARGRIPDAIMEVLRDCNIQFYEGNLILQVYDHTNTVDVTPKENKPNLNSSSSPSNNNSTQDNSKIQQPSEPNSGVANTGANTANKKASFKRPRVYRTLLKPNDLTTYYDMMSYADNARFSDSIYQQFESEILTLTKRNLSLSVPLNPYEHRDMLEETAFSEPHWDSEKKSFIHEHRAESTREGTKGVVGHIEERDEFPQHSSNYEQLMLIMNERTTTITNSTFAVSLTKNAMEIASSSSNGVRGASSSTSNSASNTRNNSLANGNQVALAAAAAAAAVGSTMGNDNNQFSRLKFIEQWRINKEKRKQQALSANINPTPFNARISMTAPLTPQQQLLQRQQQALEQQQNGGAMKNANKRSGNNATSNNNNNNNNLDKPKVKRPRKNAKKSESGTPAPKKKRMTKKKQSASSTPSSTTMS
